Data as given in the RNAGym collection of RNA variant scans (doi:10.1093/molbev/msab373).

B1: Azoarcus group I ribozyme (parent)
chain: GUGCCUUGCGCCGGGAAACCACGCAAGGGAUGGUGUCAAAUUCGGCGAAACCUAAGCGCCCGCCCGGGCGUAUGGCAACGCCGAGCCAAGCUUCGGCGCCUGCGCCGAUGAAGGUGUAGAGACUAGACGGCACCCACCUAAGGCAAACGCUAUGGUGAAGGCAUAGUCCAGGGAGUGGCGAAAGUCACACAAACCGG

Variants of: B1
Assay: reverse-splicing fitness (ratio to wild type); higher = more active; in vitro selection; Mg2+ level not given
In short: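 An in vitro group I ribozyme library with randomized positions was T7-transcribed and gel-purified. In triplicate, 10 pmol RNA in EPPS pH 7.5 was reacted with 50 pmoles of a 30-nt RNA substrate for 1 h at 37 °C across several added MgCl2 levels (1–48 mM), then stopped with EDTA. Products were reverse transcribed from a substrate-complementary primer, PCR-amplified and sequenced (HiSeq 4000). Fitness is a variant's read proportion after selection over that before, normalised to wild type.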

Variant	reverse-splicing fitness
C82U C150A C169A	0.0107
C82U C150A C169U	0.0105
C82U C150A C169G	0.00731
A111C A120C A145U C169U U176C	0.0445
A111C A120C A145U C169U U176G	0.00761
A111C A120C A145U C169U U176A	0.035
A111C A120C A145U C150G	0.0621
A111C A120C A145U C150U	0.415
A111C A120C A145U C150A	0.0648
A111C A120C C169A	0.0116
A111C A120C C169U	0.183
A111C A120C C169G	0.00921
A111C A120C A145C C150U C169U U176A	0.0206
A111C A120C A145C C150U C169U U176C	0.0237
A111C A120C A145C C150U C169U U176G	0.00555
A111C A120C A145C C150A C169G U176A	0.0246
A111C A120C A145C C150A C169G U176C	0.0146
A111C A120C A145C C150A C169G U176G	0.007
A111C A120C A145U C169A	0.0119
A111C A120C A145U C169G	0.00945
A111C A120C A145U C169U	0.189
C82U C169G U176C	0.0184
C82U C169G U176G	0.00406
C82U C169G U176A	0.0144

Variant	reverse-splicing fitness
A111C A120C A145U C150U C169G U176A	0.0128
A111C A120C A145U C150U C169G U176C	0.0132
A111C A120C A145U C150U C169G U176G	0.00667
A111C A120C A145U C169A U176G	0.00762
A111C A120C A145U C169A U176A	0.0135
A111C A120C A145U C169A U176C	0.0102
C82U C150A C169G U176A	0.0177
C82U C150A C169G U176C	0.0184
C82U C150A C169G U176G	0.00558
A111C A120C C169A U176G	0.00631
A111C A120C C169A U176C	0.0161
A111C A120C C169A U176A	0.0152
C82U C150G U176G	0.00652
C82U C150G U176A	0.0283
C82U C150G U176C	0.0477
A111C A120C A145U C150U C169U U176A	0.028
A111C A120C A145U C150U C169U U176C	0.0374
A111C A120C A145U C150U C169U U176G	0.00661
C82U C150G C169A U176A	0.0115
C82U C150G C169A U176G	0.00612
C82U C150G C169A U176C	0.01
A111C A120G A145C	0.149
C82U C150U U176C	0.294
C82U C150U U176A	0.238

Variant	reverse-splicing fitness
C82U C150U U176G	0.0675
A111C A120C A145G C169G U176A	0.0201
A111C A120C A145G C169G U176G	0.00588
A111C A120C A145G C169G U176C	0.0244
A111C A120G A145C C150A	0.0117
A111C A120C A145C C150G U176A	0.0198
A111C A120C A145C C150G U176G	0.00444
A111C A120C A145C C150G U176C	0.0391
A111C A120C A145G C150U C169A U176C	0.0144
A111C A120C A145G C150U C169A U176G	0.00559
A111C A120C A145G C150U C169A U176A	0.014
A111C A120C A145U C150G C169A U176A	0.0107
A111C A120C A145U C150G C169A U176C	0.00906
A111C A120C A145U C150G C169A U176G	0.00619
A111C A120C A145C C150U C169G	0.00649
A111C A120C A145C C150U C169U	0.048
A111C A120C A145C C150U C169A	0.00837
A111C A120C A145G C150G C169A U176C	0.0116
A111C A120C A145G C150G C169A U176G	0.00793
A111C A120C A145G C150G C169A U176A	0.0133
A111C A120C A145C	0.556
A111C A120C A145U	0.589
A111C A120C A145G	0.614
A111C A120C C150G C169A	0.00914

Variant	reverse-splicing fitness
A111C A120C C150G C169G	0.00757
A111C A120C C150G C169U	0.02
A111C A120C C150A U176A	0.0343
A111C A120C C150A U176C	0.0495
A111C A120C C150A U176G	0.0118
A111C A120C A145C C150A U176G	0.0084
A111C A120C A145C C150A U176C	0.0293
A111C A120C A145C C150A U176A	0.0203
A111C A120C A145G C150U U176A	0.159
A111C A120C A145G C150U U176G	0.0297
A111C A120C A145G C150U U176C	0.18
A111C A120C C150G U176C	0.0288
A111C A120C C150G U176G	0.00388
A111C A120C C150G U176A	0.0144
A111C A120C A145U C150G C169G U176G	0.00591
A111C A120C A145U C150G C169G U176C	0.00645
A111C A120C A145U C150G C169G U176A	0.00752
A111C A120C A145U U176C	0.215
A111C A120C A145U U176G	0.0519
A111C A120C A145U U176A	0.222
C82U C150A C169U U176C	0.0153
C82U C150A C169U U176G	0.0058
C82U C150A C169U U176A	0.0169
A111C A120C C150A C169U	0.0222

Variant	reverse-splicing fitness
A111C A120C C150A C169A	0.00999
A111C A120C C150A C169G	0.00716
C82U C150U C169U U176A	0.0128
C82U C150U C169U U176C	0.0135
C82U C150U C169U U176G	0.00558
A111C A120C A145G C169A U176A	0.0222
A111C A120C A145G C169A U176C	0.0284
A111C A120C A145G C169A U176G	0.0054
A111C A120C A145G C150G U176A	0.0158
A111C A120C A145G C150G U176G	0.0072
A111C A120C A145G C150G U176C	0.0368
C82U C150U C169A U176G	0.00561
C82U C150U C169A U176C	0.0123
C82U C150U C169A U176A	0.0154
A111C A120C C150A C169U U176G	0.00635
A111C A120C C150A C169U U176A	0.0208
A111C A120C C150A C169U U176C	0.0224
A111C A120C A145C C150G C169U U176C	0.0163
A111C A120C A145C C150G C169U U176A	0.00995
A111C A120C A145C C150G C169U U176G	0.0054
A111C A120C A145G C150A	0.0979
A111C A120C A145G C150U	0.462
A111C A120C A145G C150G	0.0633
A111C A120C C150A	0.0821

Variant	reverse-splicing fitness
A111C A120C C150U	0.362
A111C A120C C150G	0.0496
A111C A120C C169U U176C	0.0446
A111C A120C C169U U176A	0.031
A111C A120C C169U U176G	0.0068
A111C A120C A145C C169U U176G	0.006
A111C A120C A145C C169U U176A	0.0332
A111C A120C A145C C169U U176C	0.0413
A111C A120C A145U C150A C169U	0.024
A111C A120C A145U C150A C169A	0.00839
A111C A120C A145U C150A C169G	0.00628
A111C A120C C150G C169A U176G	0.00561
A111C A120C C150G C169A U176C	0.00966
A111C A120C C150G C169A U176A	0.00884
A111C A120C A145U C150G C169U U176C	0.0173
A111C A120C A145U C150G C169U U176G	0.00656
A111C A120C A145U C150G C169U U176A	0.00997
A111C A120C A145C C150A C169U U176C	0.0108
A111C A120C A145C C150A C169U U176G	0.00564
A111C A120C A145C C150A C169U U176A	0.0155
A111C A120C C150G C169U U176G	0.00523
A111C A120C C150G C169U U176A	0.00759
A111C A120C C150G C169U U176C	0.014
A111C A120C A145G C150U C169G U176A	0.0118

Variant	reverse-splicing fitness
A111C A120C A145G C150U C169G U176G	0.00574
A111C A120C A145G C150U C169G U176C	0.0158
C82U C150G C169G	0.00776
C82U C150G C169U	0.00789
C82U C150G C169A	0.00916
C82U C150U C169A	0.00983
C82U C150U C169U	0.0129
C82U C150U C169G	0.00973
A111C A120C A145G U176G	0.0393
A111C A120C A145G U176A	0.19
A111C A120C A145G U176C	0.203
A111C A120C A145C C150G C169A U176G	0.00595
A111C A120C A145C C150G C169A U176C	0.00793
A111C A120C A145C C150G C169A U176A	0.0076
C82U C169U U176A	0.0123
C82U C169U U176C	0.0155
C82U C169U U176G	0.00445
C82U A145U U176C	0.477
C82U A145U U176A	0.412
C82U A145U U176G	0.153
A111C A120C C150U C169G U176C	0.0164
A111C A120C C150U C169G U176G	0.00557
A111C A120C C150U C169G U176A	0.0124
